This note sets out measurements from article PMC9761383 (2022).

For assay [1], the target named is collagen α1α1α2(IV) purified from conditioned culture medium of WT PFHR9 cells (mouse (endogenous in PFHR9)). The experiment in a line: rotary shadow electron microscopy; purified collagen α1α1α2(IV) (about 100 μg/ml) in 0.2 M acetic acid, 70% glycerol, sprayed on mica, carbon/platinum shadowed; molecules counted (WT n = 690, LH3 KO n = 295); hexamers = two heterotrimers, dodecamers = four heterotrimers.

Assay [2] addresses collagen α1α1α2(IV) purified from conditioned culture medium of LH3 KO PFHR9 cells (mouse (endogenous in PFHR9)). Described as above.
Assay [3] concerns the target T1, collagen α1α1α2(IV) purified from conditioned culture medium of WT PFHR9 cells (mouse (endogenous in PFHR9), hydroxylysines, almost fully modified to glucosyl galactosyl Hyl; 4-hydroxyproline; 3-hydroxyproline | hydroxylysines, almost fully modified to glucosyl galactosyl Hyl; 4-hydroxyproline; …). The experiment in a line: SPR. For orientation: Surface plasmon resonance follows binding to a sensor surface in real time, without labels.

Assay [4] concerns the target T2, collagen α1α1α2(IV) purified from conditioned culture medium of LH3 KO PFHR9 cells (mouse (endogenous in PFHR9), more unmodified lysines (significantly fewer hydroxylysines)); high occupancy of galactosyl Hyl but not glucosyl galactosyl Hyl; prolyl 4 hydroxylation reduced | more unmodified lysines (significantly …). The experiment in a line: SPR.
Assay [5] addresses T1, collagen α1α1α2(IV) purified from …. As to the kind of experiment: SPR. The source holds these as a separate data set.
Assay [6] addresses T2, collagen α1α1α2(IV) purified from …. The experiment in a line: SPR. The source holds these as a separate data set.

Usually Kd stands for the concentration at which binding is half-saturated. A high value points to a looser complex. What is called koff is a measure of how fast the partners let go of each other. A high value points to a short-lived complex.

T1 sequence (P02463 28-1669, chain 1 of 2): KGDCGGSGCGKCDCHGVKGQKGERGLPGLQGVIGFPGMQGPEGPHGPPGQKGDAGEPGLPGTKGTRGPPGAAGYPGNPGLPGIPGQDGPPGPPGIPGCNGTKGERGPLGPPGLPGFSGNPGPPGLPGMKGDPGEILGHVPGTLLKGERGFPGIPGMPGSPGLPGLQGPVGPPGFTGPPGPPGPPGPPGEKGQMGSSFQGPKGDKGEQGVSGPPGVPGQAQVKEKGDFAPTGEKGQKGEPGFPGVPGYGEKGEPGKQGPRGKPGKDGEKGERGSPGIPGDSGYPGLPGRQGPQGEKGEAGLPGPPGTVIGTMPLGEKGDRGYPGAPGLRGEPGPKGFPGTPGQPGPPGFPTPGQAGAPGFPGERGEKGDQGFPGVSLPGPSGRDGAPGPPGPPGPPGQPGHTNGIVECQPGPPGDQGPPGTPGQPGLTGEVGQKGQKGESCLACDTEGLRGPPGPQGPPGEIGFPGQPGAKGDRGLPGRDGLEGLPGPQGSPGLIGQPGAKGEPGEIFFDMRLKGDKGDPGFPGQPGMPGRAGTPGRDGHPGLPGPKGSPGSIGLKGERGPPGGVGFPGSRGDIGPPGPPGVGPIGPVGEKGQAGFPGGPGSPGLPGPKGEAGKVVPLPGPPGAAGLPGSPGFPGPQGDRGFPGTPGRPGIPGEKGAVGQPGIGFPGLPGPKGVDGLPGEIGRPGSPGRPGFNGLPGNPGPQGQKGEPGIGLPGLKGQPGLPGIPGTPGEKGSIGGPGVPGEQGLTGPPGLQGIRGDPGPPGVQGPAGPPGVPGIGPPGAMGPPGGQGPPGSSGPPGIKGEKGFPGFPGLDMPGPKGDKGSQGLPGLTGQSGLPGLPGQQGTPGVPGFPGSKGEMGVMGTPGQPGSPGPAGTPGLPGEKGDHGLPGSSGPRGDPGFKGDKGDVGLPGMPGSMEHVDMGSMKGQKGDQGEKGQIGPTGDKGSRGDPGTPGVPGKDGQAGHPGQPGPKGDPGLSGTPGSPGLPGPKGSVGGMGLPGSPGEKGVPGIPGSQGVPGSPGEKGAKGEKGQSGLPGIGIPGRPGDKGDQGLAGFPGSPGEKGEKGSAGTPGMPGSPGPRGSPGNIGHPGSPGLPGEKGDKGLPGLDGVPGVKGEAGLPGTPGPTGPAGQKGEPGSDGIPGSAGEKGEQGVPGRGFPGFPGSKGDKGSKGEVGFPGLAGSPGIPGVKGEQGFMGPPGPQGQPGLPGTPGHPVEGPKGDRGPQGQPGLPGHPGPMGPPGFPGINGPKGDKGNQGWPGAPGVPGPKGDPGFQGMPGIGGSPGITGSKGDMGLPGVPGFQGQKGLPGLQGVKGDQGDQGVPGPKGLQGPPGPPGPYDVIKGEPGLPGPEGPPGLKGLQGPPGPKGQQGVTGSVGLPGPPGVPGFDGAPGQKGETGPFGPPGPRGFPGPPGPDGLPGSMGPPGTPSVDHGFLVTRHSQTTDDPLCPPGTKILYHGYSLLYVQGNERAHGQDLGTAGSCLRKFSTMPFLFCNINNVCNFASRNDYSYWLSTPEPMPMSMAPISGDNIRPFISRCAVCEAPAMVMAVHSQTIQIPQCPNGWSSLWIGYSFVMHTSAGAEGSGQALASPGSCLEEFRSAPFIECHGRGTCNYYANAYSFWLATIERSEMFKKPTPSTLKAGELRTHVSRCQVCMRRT
T1 sequence (P08122 26-1707, chain 2 of 2, further chain): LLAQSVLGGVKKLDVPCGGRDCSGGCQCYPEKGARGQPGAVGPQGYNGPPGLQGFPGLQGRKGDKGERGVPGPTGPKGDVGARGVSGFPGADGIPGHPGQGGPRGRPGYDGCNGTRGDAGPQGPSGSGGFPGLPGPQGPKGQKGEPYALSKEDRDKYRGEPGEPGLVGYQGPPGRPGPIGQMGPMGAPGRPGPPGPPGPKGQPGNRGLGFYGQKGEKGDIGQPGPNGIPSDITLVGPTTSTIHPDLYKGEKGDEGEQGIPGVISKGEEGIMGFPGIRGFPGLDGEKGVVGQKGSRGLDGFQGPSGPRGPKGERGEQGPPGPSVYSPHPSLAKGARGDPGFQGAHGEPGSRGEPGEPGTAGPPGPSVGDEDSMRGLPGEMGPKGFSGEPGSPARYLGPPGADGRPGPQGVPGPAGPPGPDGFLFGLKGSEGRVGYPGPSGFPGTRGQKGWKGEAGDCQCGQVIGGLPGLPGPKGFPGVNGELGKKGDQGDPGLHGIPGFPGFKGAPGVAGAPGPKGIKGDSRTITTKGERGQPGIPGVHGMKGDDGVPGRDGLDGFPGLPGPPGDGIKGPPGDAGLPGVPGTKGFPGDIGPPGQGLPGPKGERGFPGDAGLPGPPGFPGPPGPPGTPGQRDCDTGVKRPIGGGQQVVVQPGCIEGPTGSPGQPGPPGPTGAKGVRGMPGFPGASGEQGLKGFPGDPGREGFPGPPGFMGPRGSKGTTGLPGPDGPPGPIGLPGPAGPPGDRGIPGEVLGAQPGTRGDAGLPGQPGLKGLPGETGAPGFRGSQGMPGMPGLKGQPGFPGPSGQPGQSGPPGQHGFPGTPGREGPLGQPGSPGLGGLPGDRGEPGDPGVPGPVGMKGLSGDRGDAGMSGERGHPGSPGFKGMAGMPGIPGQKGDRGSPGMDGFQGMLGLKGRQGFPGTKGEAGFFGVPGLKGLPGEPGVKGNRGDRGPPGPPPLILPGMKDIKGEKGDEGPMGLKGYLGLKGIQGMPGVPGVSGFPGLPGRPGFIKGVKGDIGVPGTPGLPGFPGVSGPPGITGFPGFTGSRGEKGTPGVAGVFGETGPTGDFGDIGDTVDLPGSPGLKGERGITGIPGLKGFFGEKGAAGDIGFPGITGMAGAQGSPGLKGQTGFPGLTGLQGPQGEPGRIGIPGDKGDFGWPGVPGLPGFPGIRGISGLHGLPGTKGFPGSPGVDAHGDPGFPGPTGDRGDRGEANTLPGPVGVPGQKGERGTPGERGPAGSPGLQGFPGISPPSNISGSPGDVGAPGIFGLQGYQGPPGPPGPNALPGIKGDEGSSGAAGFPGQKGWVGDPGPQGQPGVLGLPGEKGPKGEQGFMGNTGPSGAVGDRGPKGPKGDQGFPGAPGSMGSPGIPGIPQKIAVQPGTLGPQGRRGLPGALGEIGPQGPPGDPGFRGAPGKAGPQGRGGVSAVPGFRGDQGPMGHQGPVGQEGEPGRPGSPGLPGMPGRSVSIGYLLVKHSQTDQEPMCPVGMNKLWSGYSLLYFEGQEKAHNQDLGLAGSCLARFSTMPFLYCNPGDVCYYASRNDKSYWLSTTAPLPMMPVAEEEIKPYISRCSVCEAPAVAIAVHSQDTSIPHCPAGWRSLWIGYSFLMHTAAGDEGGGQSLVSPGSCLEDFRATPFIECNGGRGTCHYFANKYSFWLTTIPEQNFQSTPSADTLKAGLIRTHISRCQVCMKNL
T2 sequence (P02463 28-1669, chain 1 of 2): as the sequence (P02463 28-1669, chain 1 of 2) above
T2 sequence (P08122 26-1707, chain 2 of 2, further chain): as the sequence (P08122 26-1707, chain 2 of 2, further chain) above

In assay [1], “collagen α1α1α2(IV) purified from conditioned culture medium of WT PFHR9 cells (complex)” had a percent of molecules seen as dodecamers (four heterotrimers) of 9% and a percent of molecules seen as hexamers (two heterotrimers) of 8.5%.
In assay [2], “collagen α1α1α2(IV) purified from conditioned culture medium of LH3 KO PFHR9 cells (complex)” returned a percent of molecules seen as shortened hexamers (two heterotrimers) of 7.8%.

B1: heat shock protein 47 (natural protein)
chain: VPSEDRKLSDKATTLADRSTTLAFNLYHAMAKDKNMENILLSPVVVASSLGLVSLGGKATTASQAKAVLSADKLNDDYVHSGLSELLNEVSNSTARNVTWKIGNRLYGPASINFADDFVKNSKKHYNYEHSKINFRDKRSALKSINEWAAQTTDGKLPEVTKDVEKTDGALIVNAMFFKPHWDEKFHHKMVDNRGFMVTRSYTVGVPMMHRTGLYNYYDDEAEKLQVVEMPLAHKLSSMIFIMPNHVEPLERVEKLLNREQLKTWASKMKKRSVAISLPKVVLEVSHDLQKHLADLGLTEAIDKTKADLSKISGKKDLYLSNVFHAAALEWDTDGNPYDADIYGREEMRNPKLFYADHPFIFMIKDSKTNSILFIGRLVRPKGDKMRDEL
Turning to B1, the Kd in assay [3] was determined as 17.9 nM; in assay [4] it was 116 nM. Also, the koff in assay [5] worked out at 0.0226 s⁻¹; in assay [6], 0.107 s⁻¹.
